B1: 224-Hu1 (antibody, V domains shown)
VH: QVQLVQSGAEVKKPGASVKVSCKASGFNNKDIYMHWVRQAPGQGLEWIGRIDPATGNTKHDPKFQDRVTMTSDTSTNTVYMELSSLRSEDTAVYYCARSPYGDFGAMDYWGQGTLVTVSS
VL: DIQMTQSPSSLSASVGDRVTITCTASSSVSSNYLHWYQQKPGKAPKLWIYSTSNLPSGVPSRFSGSGSGTDFTLTISSLQPEDFATYYCHQYHRSPWTFGQGTKVEIK
notes: Humanized form of #224; also called VH8 + VL6
B2: 224-Hu7 (antibody, V domains shown)
VH: QVQLVQSGSELKKPGASVKVSCKASGFNNKDIYMHWVRQAPGQGLEWMGRIDPATGNTKHDPKFQDKAVLSSDTSVSTAYLQISSLKAEDTAVYYCARSPYGDFGAMDYWGQGTLVTVSS
VL: DIQMTQSPSSLSASVGDRVTITCTASSSVSSNYLHWYQQKPGKAPKLLIYSTSNLPSGVPSRFSGSGSGTDFTLTISSLQPEDFATYYCHQYHRSPWTFGQGTKVEIK
notes: Humanized form of #224; also called VH9 + VL10
B3: 224-Hu6 (antibody, V domains shown)
VH: QVQLVQSGAEVKKPGASVKVSCKASGFNNKDIYMHWVRQAPGQGLEWIGRIDPATGNTKHDPKFQDRVTMTSDTSTNTVYMELSSLRSEDTAVYYCARSPYGDFGAMDYWGQGTLVTVSS
VL: DIQMTQSPSSLSASVGDRVTITCTASSSVSSNYLHWYQQKPGSSPKLWIYSTSNLPSGVPSRFSGSGSGTDFTLTISSLQPEDFATYYCHQYHRSPWTFGQGTKVEIK
notes: Humanized form of #224; also called VH8 + VL7
B4: 224-Hu2 (antibody, V domains shown)
VH: QVQLVQSGSELKKPGASVKVSCKASGFNNKDIYMHWVRQAPGQGLEWMGRIDPATGNTKHDPKFQDKAVLSSDTSVSTAYLQISSLKAEDTAVYYCARSPYGDFGAMDYWGQGTLVTVSS
VL: DIQMTQSPSSLSASVGDRVTITCTASSSVSSNYLHWYQQKPGSSPKLWIYSTSNLPSGVPSRFSGSGSGTDFTLTISSLQPEDFATYYCHQYHRSPWTFGQGTKVEIK
notes: Humanized form of #224; also called VH9 + VL7
B5: 224-Hu5 (antibody, V domains shown)
VH: QVQLVQSGSELKKPGASVKVSCKASGFNNKDIYMHWVRQAPGQGLEWMGRIDPATGNTKHDPKFQDKAVLSSDTSVSTAYLQISSLKAEDTAVYYCARSPYGDFGAMDYWGQGTLVTVSS
VL: DIQMTQSPSSLSASVGDRVTITCTASSSVSSNYLHWYQQKPGKAPKLLIYSTSNLPSGVPSRFSGSGSGTDYSLTISSLQPEDFATYYCHQYHRSPWTFGQGTKVEIK
notes: Humanized form of #224; also called VH9 + VL9
B6: 224-Hu3 (antibody, V domains shown)
VH: QVQLVQSGSELKKPGASVKVSCKASGFNNKDIYMHWVRQAPGQGLEWMGRIDPATGNTKHDPKFQDKAVLSSDTSVSTAYLQISSLKAEDTAVYYCARSPYGDFGAMDYWGQGTLVTVSS
VL: DIQMTQSPSSLSASVGDRVTITCTASSSVSSNYLHWYQQKPGKAPKLLIYSTSNLPSGVPSRFSGSGSGTDFTLTISSLQAEDAATYYCHQYHRSPWTFGQGTKVEIK
notes: Humanized form of #224; also called VH9 + VL8
B7: 224-Hu4 (antibody, V domains shown)
VH: QVQLVQSGSELKKPGASVKVSCKASGFNNKDIYMHWVRQAPGQGLEWMGRIDPATGNTKHDPKFQDKAVLSSDTSVSTAYLQISSLKAEDTAVYYCARSPYGDFGAMDYWGQGTLVTVSS
VL: DIQMTQSPSSLSASVGDRVTITCTASSSVSSNYLHWYQQKPGKAPKLWIYSTSNLPSGVPSRFSGSGSGTDFTLTISSLQPEDFATYYCHQYHRSPWTFGQGTKVEIK
notes: Humanized form of #224; also called VH9 + VL6
B8: 001-Hu5 (antibody, V domains shown)
VH: EVQLVESGGGLVQPGGSLRLSCAASGFAFSTYDLSWVRQAPGKGLEWVAYINNGGISTYYSDTVKGRFTISRDNAKNTLYLQMNSLRAEDTAVYYCVRGPFYGSANYFDYWGQGTLVTVSS
VL: DIQMTQSPSSLSASVGDRVTITCRTSESIYSNLPWYQQKPGKSPKLLVYDATKLAEGVPSRFSGSGSGTDYTLTISSLQPEDFATYYCQHFWVTPWTFGQGTKVEIK
notes: Humanized form of #001; also called VH1 + VL4
B9: 001-Hu1 (antibody, V domains shown)
VH: EVQLVESGGGLVQPGGSLRLSCAASGFAFSTYDLSWVRQAPGKGLEWVAYINNGGISTYYSDTVKGRFTISRDNAKNTLYLQMNSLRAEDTAVYYCVRGPFYGSANYFDYWGQGTLVTVSS
VL: DIQMTQSPSSLSASVGDRVTITCRTSESIYSNLPWYQQKPGKAPKLLLYDATKLAEGVPSRFSGSGSGTDYTLTISSLQPEDFATYYCQHFWVTPWTFGQGTKVEIK
notes: Humanized form of #001; also called VH1 + VL1
B10: 001-Hu4 (antibody, V domains shown)
VH: EVQLVESGGGLVQPGGSLRLSCAASGFAFSTYDLSWVRQAPGKGLEWVAYINNGGISTYYSDTVKGRFTISRDNAKNSLYLQMNSLRAEDTAVYYCVRGPFYGSANYFDYWGQGTLVTVSS
VL: DIQMTQSPSSLSASVGDRVTITCRTSESIYSNLPWYQQKPGKSPKLLVYDATKLAEGVPSRFSGSGSGTDYTLTISSLQPEDFATYYCQHFWVTPWTFGQGTKVEIK
notes: Humanized form of #001; also called VH2 + VL4
B11: 001-Hu2 (antibody, V domains shown)
VH: EVQLVESGGGLVQPGGSLRLSCAASGFAFSTYDLSWVRQAPGKGLEWVAYINNGGISTYYSDTVKGRFTISRDNAKNSLYLQMNSLRAEDTAVYYCVRGPFYGSANYFDYWGQGTLVTVSS
VL: DIQMTQSPSSLSASVGDRVTITCRTSESIYSNLPWYQQKPGKSPKLLIYDATKLAEGVPSRFSGSGSGTDFTLTISSLQPEDFATYYCQHFWVTPWTFGQGTKVEIK
notes: Humanized form of #001; also called VH2 + VL2
B12: 001-Hu3 (antibody, V domains shown)
VH: EVQLVESGGGLVQPGGSLRLSCAASGFAFSTYDLSWVRQAPGKGLEWVAYINNGGISTYYSDTVKGRFTISRDNAKNTLYLQMNSLRAEDTAVYYCVRGPFYGSANYFDYWGQGTLVTVSS
VL: DIQMTQSPSSLSASVGDRVTITCRTSESIYSNLPWYQQKPGKAPKLLIYDATKLAEGVPSRFSGSGSGTDYTLTISSLQPEDFATYYCQHFWVTPWTFGQGTKVEIK
notes: Humanized form of #001; also called VH1 + VL3

Target: T1, human TNFR2 (Novoprotein, Cat #C830) (human, UniProt P20333 23-257, limits assumed)
T1 construct: construct not described; also called human TNFR2 protein
T1 sequence (looked up): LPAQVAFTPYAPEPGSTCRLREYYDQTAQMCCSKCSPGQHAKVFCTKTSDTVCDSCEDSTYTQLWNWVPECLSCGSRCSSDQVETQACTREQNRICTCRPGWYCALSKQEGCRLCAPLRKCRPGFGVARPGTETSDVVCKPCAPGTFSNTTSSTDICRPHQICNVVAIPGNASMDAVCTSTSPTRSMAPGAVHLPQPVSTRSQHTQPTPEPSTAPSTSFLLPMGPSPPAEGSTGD
Test: competition ELISA, competitor human TNFα-Biotin; AUC against 224-WT
Method: 1 μg/ml human TNFR2 (Novoprotein, Cat #C830) was pre-coated with 100 μl/well […] in an ELISA plate. All the test TNFR2 antibodies were subjected to 2.5-fold gradient dilution from the highest concentration of 30 μg/ml; the diluted antibodies were mixed with 15 ng/ml human TNFα-Biotin (Acro Biosystem, Cat #TNA-H82E3) in equal volume, respectively; the resulting mixture was added to the ELISA plate at 100 μl/well, and incubated with shaking at room temperature for 2.0 hours. The plate was washed, and then a Streptavidin-HRP working solution (diluted at 1:10000) was added at 100 μl/well, and the mixture was incubated with shaking at room temperature for 40 minutes. The plate was washed again, and then the substrate TMB of HRP was added to develop colour. A stop solution was added to stop the reaction, and then a microplate reader (MD 13) was used to read the absorbance value. The inhibitory curve of an antibody was drawn with antibody concentration as the abscissa and corresponding OD value as the ordinate, and fitted with four parameters (GraphPad Prism9) to calculate the IC50 value. The smaller the IC50 value, the stronger the ability of an antibody to inhibit the binding of human TNFα to human TNFR2. The blocking effect of a humanized antibody was normalized to its corresponding human-murine chimeric antibody WT. The higher the percentage value, the better the inhibitory effect of the humanized antibody.

**Q.** Which “% Relative activity (WT antibody/test antibody)” value does the source give for B1 here?
**A.** Its value is 98.8%.

**Q.** B2 was tested. Which “% Relative activity (WT antibody/test antibody)” value did it give?
**A.** The value was 100%.

**Q.** B3 was tested. Which “% Relative activity (WT antibody/test antibody)” value did it give?
**A.** The value was 100%.

**Q.** How did the “% Relative activity (WT antibody/test antibody)” value turn out when B4 was run?
**A.** Its value is 102%.

**Q.** How did the “% Relative activity (WT antibody/test antibody)” value turn out when B5 was run?
**A.** Its value is 97.2%.

**Q.** Which “% Relative activity (WT antibody/test antibody)” value does the source give for B6 here?
**A.** The value was 98.2%.

**Q.** With B7 as the binder, how does the “% Relative activity (WT antibody/test antibody)” value read?
**A.** Its value is 100%.

Target: T2, human TNFR2 on the surface of CHO-TNFR2 cells (human, UniProt P20333 23-461)
T2 construct: whole, on cells
T2 sequence (looked up): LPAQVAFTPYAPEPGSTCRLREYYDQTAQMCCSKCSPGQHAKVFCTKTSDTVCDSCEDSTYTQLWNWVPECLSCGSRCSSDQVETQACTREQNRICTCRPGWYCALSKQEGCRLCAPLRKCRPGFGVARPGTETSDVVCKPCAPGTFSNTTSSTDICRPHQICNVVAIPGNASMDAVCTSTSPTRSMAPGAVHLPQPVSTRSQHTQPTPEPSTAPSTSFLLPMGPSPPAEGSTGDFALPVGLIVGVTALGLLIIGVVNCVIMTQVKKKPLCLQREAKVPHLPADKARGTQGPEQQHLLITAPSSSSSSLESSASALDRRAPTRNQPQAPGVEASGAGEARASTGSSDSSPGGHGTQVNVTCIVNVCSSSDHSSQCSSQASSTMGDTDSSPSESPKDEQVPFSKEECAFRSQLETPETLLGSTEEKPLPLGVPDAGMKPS
Test: flow cytometry on CHO-TNFR2 cells; EC50 against 001-WT
Method: The transfected full-length plasmid of human TNFR2 was purchased from Sino Biological (Cat #HG10417-UT, NCBI Ref Seq: NM_001066.2). The experiment was conducted at a cell density within 80%. The cell medium was discarded; the cells were rinsed with PBS, and digested with 1 ml trypsin for 2 minutes; the digestion was stopped with a Ham's F12 complete medium containing 10% FBS, and then a cell suspension was made. The cell suspension was counted, and then an appropriate amount of cell suspension was centrifuged at 350×g; the supernatant was discarded; a corresponding volume of blocking solution (10% FBS+PBS) at a density of 1×10⁷ cells/ml was added to resuspend the cells, and the mixture was incubated at 4° C. for 30 minutes. After the incubation, the mixture was centrifuged at 350×g to remove the supernatant, and the cells were resuspended in a staining buffer (2% FBS+PBS) to a density of 2×10⁶ cells/ml, and spread onto a 96-well plate, with 50 μl of cell suspension added to each well for later use. The antibody was diluted with PBS for 10-fold gradient dilution from the highest concentration of 20 μg/m (twice the concentration); the diluted antibody was added to the well containing 50 μl of cell suspension, and placed on a microplate shaker for shaking at 500 rpm for 1 minute, so that the antibody was fully mixed with the cells; the mixture was incubated at 4° C. for 1 h. After the incubation, the cells were washed twice with the staining buffer, with 100 μl per well, and centrifuged at 350-g for 5 minutes, and the supernatant was discarded. The PE goat anti-Human IgG Fc antibody (ebioscience, Cat #12-4998-82) was diluted 250-fold with the staining buffer, with a volume of 100 μl per well added to the washed cell wells; the mixture was mixed evenly, and stained at 4° C. for 30 minutes. After the staining, similarly, the cells were washed twice with the staining buffer; finally, the cells were resuspended in 200 μl of staining buffer; signals were detected by a flow cytometer (Thermo Attune NxT). The stronger the signal, the stronger the binding ability of an antibody to TNFR2. The binding curve of an antibody was drawn with antibody concentration as the abscissa and corresponding mean fluorescence intensity (MFI) fold as the ordinate, and fitted with four parameters (GraphPad Prism9) to calculate the EC50 value.

**Q.** How did the “% Relative activity (WT antibody/test antibody)” value turn out when B8 was run?
**A.** The value was 123%.

**Q.** B9 was tested. Which “% Relative activity (WT antibody/test antibody)” value did it give?
**A.** Its value is 78%.

**Q.** Which “% Relative activity (WT antibody/test antibody)” value does the source give for B10 here?
**A.** Its value is 129%.

**Q.** For B11, which “% Relative activity (WT antibody/test antibody)” value is on record?
**A.** Its value is 48%.

**Q.** With B12 as the binder, how does the “% Relative activity (WT antibody/test antibody)” value read?
**A.** The value was 101%.
